Reference: PMC11467669 (The Journal of Biological Chemistry, 2024)
Each block holds one binder with its values, some of them ahead of it.

How the values were obtained:
[1] = molecular target: mono-ubiquitin with an N-terminal fluorescein moiety (UniProt P0CG47 1-76, fluorescein on the N-terminus); test: fluorescence polarisation
SEC-MALLS = molecular target: the molecule itself; test: SEC-MALLS

Kd [1]: 1.48 µM
B1: full-length USP8 (a.a. 7-1110), non-phosphorylated (enzyme)
chain: VPKELYLSSSLKDLNKKTEVKPEKISTKSYVHSALKIFKTAEECRLDRDEERAYVLYMKYVTVYNLIKKRPDFKQQQDYFHSILGPGNIKKAVEEAERLSESLKLRYEEAEVRKKLEEKDRQEEAQRLQQKRQETGREDGGTLAKGSLENVLDSKDKTQKSNGEKNEKCETKEKGAITAKELYTMMTDKNISLIIMDARRMQDYQDSCILHSLSVPEEAISPGVTASWIEAHLPDDSKDTWKKRGNVEYVVLLDWFSSAKDLQIGTTLRSLKDALFKWESKTVLRNEPLVLEGGYENWLLCYPQYTTNAKVTPPPRRQNEEVSISLDFTYPSLEESIPSKPAAQTPPASIEVDENIELISGQNERMGPLNISTPVEPVAASKSDVSPIIQPVPSIKNVPQIDRTKKPAVKLPEEHRIKSESTNHEQQSPQSGKVIPDRSTKPVVFSPTLMLTDEEKARIHAETALLMEKNKQEKELRERQQEEQKEKLRKEEQEQKAKKKQEAEENEITEKQQKAKEEMEKKESEQAKKEDKETSAKRGKEITGVKRQSKSEHETSDAKKSVEDRGKRCPTPEIQKKSTGDVPHTSVTGDSGSGKPFKIKGQPESGILRTGTFREDTDDTERNKAQREPLTRARSEEMGRIVPGLPSGWAKFLDPITGTFRYYHSPTNTVHMYPPEMAPSSAPPSTPPTHKAKPQIPAERDREPSKLKRSYSSPDITQAIQEEEKRKPTVTPTVNRENKPTCYPKAEISRLSASQIRNLNPVFGGSGPALTGLRNLGNTCYMNSILQCLCNAPHLADYFNRNCYQDDINRSNLLGHKGEVAEEFGIIMKALWTGQYRYISPKDFKITIGKINDQFAGYSQQDSQELLLFLMDGLHEDLNKADNRKRYKEENNDHLDDFKAAEHAWQKHKQLNESIIVALFQGQFKSTVQCLTCHKKSRTFEAFMYLSLPLASTSKCTLQDCLRLFSKEEKLTDNNRFYCSHCRARRDSLKKIEIWKLPPVLLVHLKRFSYDGRWKQKLQTSVDFPLENLDLSQYVIGPKNNLKKYNLFSVSNHYGGLDGGHYTAYCKNAARQRWFKFDDHEVSDISVSSVKSSAAYILFYTSLG

Kd [1]: 0.367 µM
B2: USP8 Δ686–757 (FL USP8, a.a. 7-1110, entire WW-CD linker deleted) (enzyme)
chain: VPKELYLSSSLKDLNKKTEVKPEKISTKSYVHSALKIFKTAEECRLDRDEERAYVLYMKYVTVYNLIKKRPDFKQQQDYFHSILGPGNIKKAVEEAERLSESLKLRYEEAEVRKKLEEKDRQEEAQRLQQKRQETGREDGGTLAKGSLENVLDSKDKTQKSNGEKNEKCETKEKGAITAKELYTMMTDKNISLIIMDARRMQDYQDSCILHSLSVPEEAISPGVTASWIEAHLPDDSKDTWKKRGNVEYVVLLDWFSSAKDLQIGTTLRSLKDALFKWESKTVLRNEPLVLEGGYENWLLCYPQYTTNAKVTPPPRRQNEEVSISLDFTYPSLEESIPSKPAAQTPPASIEVDENIELISGQNERMGPLNISTPVEPVAASKSDVSPIIQPVPSIKNVPQIDRTKKPAVKLPEEHRIKSESTNHEQQSPQSGKVIPDRSTKPVVFSPTLMLTDEEKARIHAETALLMEKNKQEKELRERQQEEQKEKLRKEEQEQKAKKKQEAEENEITEKQQKAKEEMEKKESEQAKKEDKETSAKRGKEITGVKRQSKSEHETSDAKKSVEDRGKRCPTPEIQKKSTGDVPHTSVTGDSGSGKPFKIKGQPESGILRTGTFREDTDDTERNKAQREPLTRARSEEMGRIVPGLPSGWAKFLDPITGTFRYYHSPTNTVHMYPPEMAPSASQIRNLNPVFGGSGPALTGLRNLGNTCYMNSILQCLCNAPHLADYFNRNCYQDDINRSNLLGHKGEVAEEFGIIMKALWTGQYRYISPKDFKITIGKINDQFAGYSQQDSQELLLFLMDGLHEDLNKADNRKRYKEENNDHLDDFKAAEHAWQKHKQLNESIIVALFQGQFKSTVQCLTCHKKSRTFEAFMYLSLPLASTSKCTLQDCLRLFSKEEKLTDNNRFYCSHCRARRDSLKKIEIWKLPPVLLVHLKRFSYDGRWKQKLQTSVDFPLENLDLSQYVIGPKNNLKKYNLFSVSNHYGGLDGGHYTAYCKNAARQRWFKFDDHEVSDISVSSVKSSAAYILFYTSLG

Continued, binder first:

B3: USP8 ΔWW (WW domain-deleted mutant of FL USP8, a.a. 7-1110) (enzyme)
chain: VPKELYLSSSLKDLNKKTEVKPEKISTKSYVHSALKIFKTAEECRLDRDEERAYVLYMKYVTVYNLIKKRPDFKQQQDYFHSILGPGNIKKAVEEAERLSESLKLRYEEAEVRKKLEEKDRQEEAQRLQQKRQETGREDGGTLAKGSLENVLDSKDKTQKSNGEKNEKCETKEKGAITAKELYTMMTDKNISLIIMDARRMQDYQDSCILHSLSVPEEAISPGVTASWIEAHLPDDSKDTWKKRGNVEYVVLLDWFSSAKDLQIGTTLRSLKDALFKWESKTVLRNEPLVLEGGYENWLLCYPQYTTNAKVTPPPRRQNEEVSISLDFTYPSLEESIPSKPAAQTPPASIEVDENIELISGQNERMGPLNISTPVEPVAASKSDVSPIIQPVPSIKNVPQIDRTKKPAVKLPEEHRIKSESTNHEQQSPQSGKVIPDRSTKPVVFSPTLMLTDEEKARIHAETALLMEKNKQEKELRERQQEEQKEKLRKEEQEQKAKKKQEAEENEITEKQQKAKEEMEKKESEQAKKEDKETSAKRGKEITGVKRQSKSEHETSDAKKSVEDRGKRCPTPEIQKKSTGDVPHTSVTGDSGSGKPFKIKGQPESGILRTGTFREDTDDTERNKAQREPLTRARSEEMSSAPPSTPPTHKAKPQIPAERDREPSKLKRSYSSPDITQAIQEEEKRKPTVTPTVNRENKPTCYPKAEISRLSASQIRNLNPVFGGSGPALTGLRNLGNTCYMNSILQCLCNAPHLADYFNRNCYQDDINRSNLLGHKGEVAEEFGIIMKALWTGQYRYISPKDFKITIGKINDQFAGYSQQDSQELLLFLMDGLHEDLNKADNRKRYKEENNDHLDDFKAAEHAWQKHKQLNESIIVALFQGQFKSTVQCLTCHKKSRTFEAFMYLSLPLASTSKCTLQDCLRLFSKEEKLTDNNRFYCSHCRARRDSLKKIEIWKLPPVLLVHLKRFSYDGRWKQKLQTSVDFPLENLDLSQYVIGPKNNLKKYNLFSVSNHYGGLDGGHYTAYCKNAARQRWFKFDDHEVSDISVSSVKSSAAYILFYTSLG
Kd [1]: 0.29 µM

B4: 14-3-3γ (natural protein, UniProt P61981 1-247, looked up)
chain: MVDREQLVQKARLAEQAERYDDMAAAMKNVTELNEPLSNEERNLLSVAYKNVVGARRSSWRVISSIEQKTSADGNEKKIEMVRAYREKIEKELEAVCQDVLSLLDNYLIKNCSETQYESKVFYLKMKGDYYRYLAEVATGEKRATVVESSEKAYSEAHEISKEHMQPTHPIRLGLALNYSVFYYEIQNAPEQACHLAKTAFDDAIAELDTLNEDSYKDSTLIMQLLRDNLTLWTSDQQDDDGGEGNN
stoichiometry N (SEC-MALLS): 2
